The numbers were not newly measured in PMC4557399, which cites them from elsewhere.

In general, Kd refers to the constant that tells how readily two partners part at equilibrium.

Data set [1] addresses F1-ATP synthase beta subunit (UniProt P06576). Briefly: surface plasmon resonance. On the technique in general: SPR reads the build-up and loss of mass on a sensor chip optically.
For data set [2], the target named is F1-ATP synthase beta subunit (Bos taurus) (UniProt P00829). The data set can be described thus: bovine retinal endothelial cell binding.
Chain of F1-ATP synthase beta subunit (Bos taurus) (P00829 47-528): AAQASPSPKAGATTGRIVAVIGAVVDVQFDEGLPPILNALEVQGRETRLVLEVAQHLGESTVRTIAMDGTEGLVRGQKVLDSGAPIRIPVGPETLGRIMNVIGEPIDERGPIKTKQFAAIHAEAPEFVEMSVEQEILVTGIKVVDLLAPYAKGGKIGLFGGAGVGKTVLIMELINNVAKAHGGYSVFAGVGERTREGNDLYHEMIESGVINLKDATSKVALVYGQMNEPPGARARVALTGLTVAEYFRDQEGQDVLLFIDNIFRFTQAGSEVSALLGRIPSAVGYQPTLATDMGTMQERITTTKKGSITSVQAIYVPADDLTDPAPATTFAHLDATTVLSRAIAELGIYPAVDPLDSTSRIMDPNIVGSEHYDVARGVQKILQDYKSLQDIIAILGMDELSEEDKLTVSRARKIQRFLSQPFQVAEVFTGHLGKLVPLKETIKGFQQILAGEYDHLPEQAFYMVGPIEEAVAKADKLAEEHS

Chain of PEDF (P36955 20-418): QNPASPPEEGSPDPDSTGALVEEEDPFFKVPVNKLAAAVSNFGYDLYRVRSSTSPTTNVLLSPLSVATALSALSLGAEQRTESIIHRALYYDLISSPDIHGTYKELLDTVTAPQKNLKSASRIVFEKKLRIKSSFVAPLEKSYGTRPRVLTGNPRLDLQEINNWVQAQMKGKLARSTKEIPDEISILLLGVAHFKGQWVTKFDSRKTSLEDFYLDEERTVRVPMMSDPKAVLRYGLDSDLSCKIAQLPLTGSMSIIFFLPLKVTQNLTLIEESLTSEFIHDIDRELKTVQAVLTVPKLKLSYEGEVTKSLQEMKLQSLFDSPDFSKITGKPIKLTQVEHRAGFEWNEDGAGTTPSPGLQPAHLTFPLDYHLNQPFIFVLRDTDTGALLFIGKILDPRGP
Chain of F1-ATP synthase beta subunit (P06576 48-529): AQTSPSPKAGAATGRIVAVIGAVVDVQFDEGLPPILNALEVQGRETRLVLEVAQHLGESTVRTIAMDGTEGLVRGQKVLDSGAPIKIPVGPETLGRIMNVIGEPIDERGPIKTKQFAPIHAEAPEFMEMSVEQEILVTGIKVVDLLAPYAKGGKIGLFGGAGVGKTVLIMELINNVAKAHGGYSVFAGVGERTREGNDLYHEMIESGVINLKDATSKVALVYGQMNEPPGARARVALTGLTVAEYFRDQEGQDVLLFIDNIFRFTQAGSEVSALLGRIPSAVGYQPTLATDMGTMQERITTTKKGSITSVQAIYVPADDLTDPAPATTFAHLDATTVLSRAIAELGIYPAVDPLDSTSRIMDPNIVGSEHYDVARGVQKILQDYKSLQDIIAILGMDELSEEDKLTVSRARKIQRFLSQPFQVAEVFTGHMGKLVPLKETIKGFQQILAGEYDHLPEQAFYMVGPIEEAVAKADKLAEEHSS

Regarding PEDF (from UniProt P36955), the Kd is 1.51 nM in data set [1] and 4 nM in data set [2].
